Reference: article PMC9482650, “Quantitative fragmentomics allow affinity mapping of interactomes” (Nature Communications, 2022)
Each block holds one binder with its values, some of them ahead of it.

What was measured:
Assay in all cases: holdup assay
Set-up in all cases: key: below the threshold = too weak to quantify, mostly under pKd 3.1 to 4
DLG4_2, P78352 = molecular target: DLG4_2, P78352
GRID2IP_2, A4D2P6 = molecular target: GRID2IP_2, A4D2P6
SCRIB_1, Q14160 = molecular target: SCRIB_1, Q14160
Chain of SCRIB_1, Q14160 (Q14160 718-814): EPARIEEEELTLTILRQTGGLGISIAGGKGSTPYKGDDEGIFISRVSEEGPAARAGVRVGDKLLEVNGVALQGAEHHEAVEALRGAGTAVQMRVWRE

GRIP1_4, Q9Y3R0 = molecular target: T1, GRIP1_4, Q9Y3R0
T1 sequence (Q9Y3R0 467-571, limits assumed, looked up): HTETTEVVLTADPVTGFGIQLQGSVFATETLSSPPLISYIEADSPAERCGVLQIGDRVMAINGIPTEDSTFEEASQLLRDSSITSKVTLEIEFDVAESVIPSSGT

TIAM2, Q8IVF5 = molecular target: T2, TIAM2, Q8IVF5
T2 sequence (Q8IVF5 885-986, limits assumed, looked up): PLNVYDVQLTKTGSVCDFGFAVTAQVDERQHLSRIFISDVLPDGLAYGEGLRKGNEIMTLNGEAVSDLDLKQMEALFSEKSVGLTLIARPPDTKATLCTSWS

PDZD7_3, Q9H5P4 = molecular target: T3, PDZD7_3, Q9H5P4
T3 sequence (Q9H5P4 857-944, limits assumed, looked up): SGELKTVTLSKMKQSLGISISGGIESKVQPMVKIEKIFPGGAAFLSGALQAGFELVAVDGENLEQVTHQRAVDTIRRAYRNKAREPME

TJP1_2, Q07157 = molecular target: TJP1_2, Q07157
Chain of TJP1_2, Q07157 (Q07157 181-274): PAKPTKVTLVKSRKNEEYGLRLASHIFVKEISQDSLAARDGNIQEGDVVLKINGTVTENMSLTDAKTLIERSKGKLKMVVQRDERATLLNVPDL

MAGI2_4, Q86UL8 = molecular target: MAGI2_4, Q86UL8
Chain of MAGI2_4, Q86UL8 (Q86UL8 772-865): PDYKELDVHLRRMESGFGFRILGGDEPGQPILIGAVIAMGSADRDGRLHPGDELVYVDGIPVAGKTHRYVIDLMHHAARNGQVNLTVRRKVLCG

LNX1_3, Q8TBB1 = molecular target: LNX1_3, Q8TBB1
Chain of LNX1_3, Q8TBB1 (Q8TBB1 500-596): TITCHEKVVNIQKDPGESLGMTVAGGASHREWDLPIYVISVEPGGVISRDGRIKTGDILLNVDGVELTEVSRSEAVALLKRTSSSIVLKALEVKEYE

APBA2_2, Q99767 = molecular target: T4, APBA2_2, Q99767
T4 sequence (Q99767 654-744, limits assumed, looked up): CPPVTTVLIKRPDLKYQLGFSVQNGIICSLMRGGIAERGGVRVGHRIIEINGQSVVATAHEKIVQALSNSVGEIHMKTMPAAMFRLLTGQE

DLG2_3, Q15700 = molecular target: DLG2_3, Q15700
LNX1_1, Q8TBB1 = molecular target: LNX1_1, Q8TBB1
Chain of LNX1_1, Q8TBB1 (Q8TBB1 261-371): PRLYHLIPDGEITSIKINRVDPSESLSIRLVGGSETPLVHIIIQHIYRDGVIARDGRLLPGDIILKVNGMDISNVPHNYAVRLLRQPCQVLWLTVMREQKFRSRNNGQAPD

LIN7B, Q9HAP6 = molecular target: T5, LIN7B, Q9HAP6
T5 sequence (Q9HAP6 88-185, limits assumed, looked up): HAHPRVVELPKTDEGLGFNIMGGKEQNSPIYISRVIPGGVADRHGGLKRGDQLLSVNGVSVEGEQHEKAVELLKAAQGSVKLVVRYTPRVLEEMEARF

IL16_1, Q14005 = molecular target: IL16_1, Q14005
Chain of IL16_1, Q14005 (Q14005 210-306): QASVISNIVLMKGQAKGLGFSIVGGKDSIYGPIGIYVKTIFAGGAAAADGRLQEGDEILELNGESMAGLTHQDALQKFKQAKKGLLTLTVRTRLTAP

PCLO, Q9Y6V0 = molecular target: T6, PCLO, Q9Y6V0
T6 sequence (Q9Y6V0 4491-4600, limits assumed, looked up): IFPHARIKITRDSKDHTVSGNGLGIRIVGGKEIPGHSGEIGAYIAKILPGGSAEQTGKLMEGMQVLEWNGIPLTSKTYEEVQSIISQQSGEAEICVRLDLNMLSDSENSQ

GRIP1_7, Q9Y3R0 = molecular target: T7, GRIP1_7, Q9Y3R0
T7 sequence (Q9Y3R0 999-1096, limits assumed, looked up): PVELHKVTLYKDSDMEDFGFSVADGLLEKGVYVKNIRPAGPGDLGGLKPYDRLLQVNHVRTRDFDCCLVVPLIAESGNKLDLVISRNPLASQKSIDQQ

FRMPD3, Q5JV73 = molecular target: FRMPD3, Q5JV73
Chain of FRMPD3, Q5JV73 (Q5JV73 12-100): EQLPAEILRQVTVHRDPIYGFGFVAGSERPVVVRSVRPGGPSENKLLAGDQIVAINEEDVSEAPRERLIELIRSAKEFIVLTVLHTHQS

GRID2IP_1, A4D2P6 = molecular target: GRID2IP_1, A4D2P6
Chain of GRID2IP_1, A4D2P6 (A4D2P6 1-87): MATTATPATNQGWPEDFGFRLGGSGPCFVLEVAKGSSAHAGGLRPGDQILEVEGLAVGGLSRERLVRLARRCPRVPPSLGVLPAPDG

MAGI2_6, Q86UL8 = molecular target: MAGI2_6, Q86UL8
Chain of MAGI2_6, Q86UL8 (Q86UL8 1141-1229): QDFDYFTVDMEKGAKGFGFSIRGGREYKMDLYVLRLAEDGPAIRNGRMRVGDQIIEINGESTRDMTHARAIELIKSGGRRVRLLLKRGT

PDZRN4_1, Q6ZMN7 = molecular target: PDZRN4_1, Q6ZMN7
Chain of PDZRN4_1, Q6ZMN7 (Q6ZMN7 213-318): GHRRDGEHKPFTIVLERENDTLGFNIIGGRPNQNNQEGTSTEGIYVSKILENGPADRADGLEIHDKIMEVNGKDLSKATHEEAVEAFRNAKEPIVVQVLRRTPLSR

Inadl_5, Q8NI35 = molecular target: Inadl_5, Q8NI35
Chain of Inadl_5, Q8NI35 (Q8NI35 673-780): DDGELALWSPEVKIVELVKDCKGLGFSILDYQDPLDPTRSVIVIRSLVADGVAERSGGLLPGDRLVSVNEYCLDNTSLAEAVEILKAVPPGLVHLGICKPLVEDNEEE

MAGI2_3, Q86UL8 = molecular target: MAGI2_3, Q86UL8
Chain of MAGI2_3, Q86UL8 (Q86UL8 600-682): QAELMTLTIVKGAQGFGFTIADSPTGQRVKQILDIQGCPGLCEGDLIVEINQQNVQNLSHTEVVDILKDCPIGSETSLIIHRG

FRMPD1, Q5SYB0 = molecular target: T8, FRMPD1, Q5SYB0
T8 sequence (Q5SYB0 52-145, limits assumed, looked up): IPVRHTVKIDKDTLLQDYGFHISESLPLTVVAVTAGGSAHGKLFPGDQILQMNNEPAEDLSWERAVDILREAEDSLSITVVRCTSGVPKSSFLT

MAST1, Q9Y2H9 = molecular target: MAST1, Q9Y2H9
Chain of MAST1, Q9Y2H9 (Q9Y2H9 962-1065): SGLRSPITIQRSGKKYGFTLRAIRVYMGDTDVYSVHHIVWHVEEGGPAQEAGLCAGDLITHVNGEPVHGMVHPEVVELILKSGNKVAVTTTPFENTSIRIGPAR

PTPN13_1, Q12923 = molecular target: T9, PTPN13_1, Q12923
T9 sequence (Q12923 1088-1188, limits assumed, looked up): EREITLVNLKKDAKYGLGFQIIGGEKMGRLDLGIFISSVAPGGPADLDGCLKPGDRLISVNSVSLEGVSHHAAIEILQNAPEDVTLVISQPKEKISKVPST

LIN7A, O14910 = molecular target: T10, LIN7A, O14910
T10 sequence (O14910 103-200, limits assumed, looked up): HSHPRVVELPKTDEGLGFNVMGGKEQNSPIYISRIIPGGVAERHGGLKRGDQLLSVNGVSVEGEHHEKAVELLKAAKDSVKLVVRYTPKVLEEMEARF

FRMPD4, Q14CM0 = molecular target: FRMPD4, Q14CM0
Chain of FRMPD4, Q14CM0 (Q14CM0 67-160): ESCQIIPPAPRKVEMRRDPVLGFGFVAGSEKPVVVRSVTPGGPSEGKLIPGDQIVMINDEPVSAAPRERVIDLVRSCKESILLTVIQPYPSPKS

[1] = plain residues with an end cap or a label only (N-terminal biotin on a linker: ahx)
[2] = plain residues with an end cap or a label only (N-terminal biotin on a linker: ado-ado)

Chain of DLG4_2, P78352 (P78352 155-259): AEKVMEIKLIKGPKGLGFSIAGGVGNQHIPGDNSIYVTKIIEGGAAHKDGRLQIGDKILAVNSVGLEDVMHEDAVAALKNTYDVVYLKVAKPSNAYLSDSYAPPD
Chain of GRID2IP_2, A4D2P6 (A4D2P6 272-370): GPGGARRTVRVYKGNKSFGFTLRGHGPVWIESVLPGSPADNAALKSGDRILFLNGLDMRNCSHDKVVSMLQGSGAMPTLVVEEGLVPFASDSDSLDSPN

pKd (DLG4_2, P78352; [1]): 3.55
pKd (GRID2IP_2, A4D2P6; [1]): 4.18
pKd (SCRIB_1, Q14160; [1]): 4.22
pKd (GRIP1_4, Q9Y3R0; [1]): below the threshold
pKd (TIAM2, Q8IVF5; [1]): below the threshold
pKd (PDZD7_3, Q9H5P4; [1]): 3.92
pKd (TJP1_2, Q07157; [1]): below the threshold
pKd (MAGI2_4, Q86UL8; [1]): 3.48
pKd (LNX1_3, Q8TBB1; [1]): below the threshold
pKd (APBA2_2, Q99767; [1]): below the threshold
pKd (DLG2_3, Q15700; [1]): below the threshold
pKd (LNX1_1, Q8TBB1; [1]): below the threshold
pKd (LIN7B, Q9HAP6; [1]): below the threshold
pKd (IL16_1, Q14005; [1]): below the threshold
pKd (PCLO, Q9Y6V0; [1]): below the threshold
pKd (GRIP1_7, Q9Y3R0; [1]): below the threshold
pKd (FRMPD3, Q5JV73; [1]): below the threshold
pKd (GRID2IP_1, A4D2P6; [1]): below the threshold
pKd (MAGI2_6, Q86UL8; [1]): below the threshold
pKd (PDZRN4_1, Q6ZMN7; [1]): 4.17
pKd (Inadl_5, Q8NI35; [1]): below the threshold
pKd (MAGI2_3, Q86UL8; [1]): below the threshold
pKd (FRMPD1, Q5SYB0; [1]): below the threshold
pKd (MAST1, Q9Y2H9; [1]): 4.44
pKd (PTPN13_1, Q12923; [1]): below the threshold
pKd (LIN7A, O14910; [1]): below the threshold
pKd (FRMPD4, Q14CM0; [1]): 3.73
B1: FRMPD1, Q5SYB0 (peptide)
chain: TQKFRASTAL

pKd (DLG4_2, P78352; [2]): 5.63
pKd (GRID2IP_2, A4D2P6; [2]): below the threshold
pKd (SCRIB_1, Q14160; [2]): 4.88
pKd (GRIP1_4, Q9Y3R0; [2]): below the threshold
pKd (TIAM2, Q8IVF5; [2]): below the threshold
pKd (PDZD7_3, Q9H5P4; [2]): 4.47
pKd (TJP1_2, Q07157; [2]): below the threshold
pKd (MAGI2_4, Q86UL8; [2]): 4.09
pKd (LNX1_3, Q8TBB1; [2]): below the threshold
pKd (APBA2_2, Q99767; [2]): below the threshold
pKd (DLG2_3, Q15700; [2]): 4.54
pKd (LNX1_1, Q8TBB1; [2]): 3.78
pKd (LIN7B, Q9HAP6; [2]): below the threshold
pKd (IL16_1, Q14005; [2]): 4.97
pKd (PCLO, Q9Y6V0; [2]): below the threshold
pKd (GRIP1_7, Q9Y3R0; [2]): below the threshold
pKd (FRMPD3, Q5JV73; [2]): below the threshold
pKd (GRID2IP_1, A4D2P6; [2]): below the threshold
pKd (MAGI2_6, Q86UL8; [2]): 4.3
pKd (PDZRN4_1, Q6ZMN7; [2]): 4.4
pKd (Inadl_5, Q8NI35; [2]): below the threshold
pKd (MAGI2_3, Q86UL8; [2]): 3.53
pKd (FRMPD1, Q5SYB0; [2]): below the threshold
pKd (MAST1, Q9Y2H9; [2]): 4.48
pKd (PTPN13_1, Q12923; [2]): below the threshold
pKd (LIN7A, O14910; [2]): below the threshold
pKd (FRMPD4, Q14CM0; [2]): below the threshold
B2: FAM110D, Q8TAY7 (peptide)
chain: ARGPPRESEV

pKd (DLG4_2, P78352; [2]): 4.94
pKd (GRID2IP_2, A4D2P6; [2]): 3.94
pKd (SCRIB_1, Q14160; [2]): 3.64
pKd (GRIP1_4, Q9Y3R0; [2]): below the threshold
pKd (TIAM2, Q8IVF5; [2]): below the threshold
pKd (PDZD7_3, Q9H5P4; [2]): 4.56
pKd (TJP1_2, Q07157; [2]): below the threshold
pKd (MAGI2_4, Q86UL8; [2]): 3.69
pKd (LNX1_3, Q8TBB1; [2]): below the threshold
pKd (APBA2_2, Q99767; [2]): below the threshold
pKd (DLG2_3, Q15700; [2]): 4.9
pKd (LNX1_1, Q8TBB1; [2]): 3.66
pKd (LIN7B, Q9HAP6; [2]): below the threshold
pKd (IL16_1, Q14005; [2]): below the threshold
pKd (PCLO, Q9Y6V0; [2]): below the threshold
pKd (GRIP1_7, Q9Y3R0; [2]): 3.49
pKd (FRMPD3, Q5JV73; [2]): below the threshold
pKd (GRID2IP_1, A4D2P6; [2]): below the threshold
pKd (MAGI2_6, Q86UL8; [2]): below the threshold
pKd (PDZRN4_1, Q6ZMN7; [2]): 3.63
pKd (Inadl_5, Q8NI35; [2]): below the threshold
pKd (MAGI2_3, Q86UL8; [2]): 3.85
pKd (FRMPD1, Q5SYB0; [2]): below the threshold
pKd (MAST1, Q9Y2H9; [2]): 4.17
pKd (PTPN13_1, Q12923; [2]): below the threshold
pKd (LIN7A, O14910; [2]): below the threshold
pKd (FRMPD4, Q14CM0; [2]): below the threshold
B3: CACNG8, Q8WXS5 (peptide)
chain: NTLNRKTTPV

pKd (DLG4_2, P78352; [2]): 4.89
pKd (GRID2IP_2, A4D2P6; [2]): 3.89
pKd (SCRIB_1, Q14160; [2]): 3.49
pKd (GRIP1_4, Q9Y3R0; [2]): below the threshold
pKd (TIAM2, Q8IVF5; [2]): below the threshold
pKd (PDZD7_3, Q9H5P4; [2]): 4.19
pKd (TJP1_2, Q07157; [2]): below the threshold
pKd (MAGI2_4, Q86UL8; [2]): below the threshold
pKd (LNX1_3, Q8TBB1; [2]): below the threshold
pKd (APBA2_2, Q99767; [2]): below the threshold
pKd (DLG2_3, Q15700; [2]): 4.82
pKd (LNX1_1, Q8TBB1; [2]): below the threshold
pKd (LIN7B, Q9HAP6; [2]): below the threshold
pKd (IL16_1, Q14005; [2]): below the threshold
pKd (PCLO, Q9Y6V0; [2]): below the threshold
pKd (GRIP1_7, Q9Y3R0; [2]): below the threshold
pKd (FRMPD3, Q5JV73; [2]): below the threshold
pKd (GRID2IP_1, A4D2P6; [2]): below the threshold
pKd (MAGI2_6, Q86UL8; [2]): 3.53
pKd (PDZRN4_1, Q6ZMN7; [2]): below the threshold
pKd (Inadl_5, Q8NI35; [2]): below the threshold
pKd (MAGI2_3, Q86UL8; [2]): below the threshold
pKd (FRMPD1, Q5SYB0; [2]): below the threshold
pKd (MAST1, Q9Y2H9; [2]): below the threshold
pKd (PTPN13_1, Q12923; [2]): below the threshold
pKd (LIN7A, O14910; [2]): below the threshold
pKd (FRMPD4, Q14CM0; [2]): below the threshold
B4: CACNG2, Q9Y698 (peptide)
chain: NTANRRTTPV

pKd (DLG4_2, P78352; [2]): 3.5
pKd (GRID2IP_2, A4D2P6; [2]): 4.26
pKd (SCRIB_1, Q14160; [2]): below the threshold
pKd (GRIP1_4, Q9Y3R0; [2]): below the threshold
pKd (TIAM2, Q8IVF5; [2]): 3.86
pKd (PDZD7_3, Q9H5P4; [2]): 5.04
pKd (TJP1_2, Q07157; [2]): below the threshold
pKd (MAGI2_4, Q86UL8; [2]): below the threshold
pKd (LNX1_3, Q8TBB1; [2]): below the threshold
pKd (APBA2_2, Q99767; [2]): below the threshold
pKd (DLG2_3, Q15700; [2]): 3.91
pKd (LNX1_1, Q8TBB1; [2]): 3.89
pKd (LIN7B, Q9HAP6; [2]): 3.89
pKd (IL16_1, Q14005; [2]): 3.59
pKd (PCLO, Q9Y6V0; [2]): below the threshold
pKd (GRIP1_7, Q9Y3R0; [2]): below the threshold
pKd (FRMPD3, Q5JV73; [2]): below the threshold
pKd (GRID2IP_1, A4D2P6; [2]): below the threshold
pKd (MAGI2_6, Q86UL8; [2]): 3.61
pKd (PDZRN4_1, Q6ZMN7; [2]): 3.59
pKd (Inadl_5, Q8NI35; [2]): below the threshold
pKd (MAGI2_3, Q86UL8; [2]): 3.77
pKd (FRMPD1, Q5SYB0; [2]): below the threshold
pKd (MAST1, Q9Y2H9; [2]): 4.58
pKd (PTPN13_1, Q12923; [2]): below the threshold
pKd (LIN7A, O14910; [2]): below the threshold
pKd (FRMPD4, Q14CM0; [2]): 3.48
B5: KLHDC7A, Q5VTJ3 (peptide)
chain: PTPDLPQTRV
